The values that follow come from the nanobody polyreactivity screen of Harvey et al. (2022).

This series in a line: yeast display, Sf9 membrane polyspecificity reagent, FACS + sequencing; frameworks hold sequencing errors. Put shortly: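 A nanobody's polyreactivity label depends on the gate it was sorted from. Yeast display cells were stained with 10% biotinylated, detergent-solubilized Sf9 membrane reagent for 1 hour at 4 °C, enriched on streptavidin microbeads and sorted by FACS. The low and high (top ~1%) gates were set on anti-HA fluorescence for expression and streptavidin fluorescence for reagent binding.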
On to “QVQLVESGGGLVQAGGSLRLSCAASGSYAKGWYRQAPGKERELVAYINGRDGSTYYADSVKGRFTISRDNAKNTVYLQMNSLIPEDTAVYYCNADYVLQYNYWGQGTQVTVSS”, for which the “polyreactivity (PSR sort gate)” value was “low polyreactivity”.

For “QVQLVESGGGLVQAGGSLRLSCAASGTFGVYAMGWYRQSPGKERELVAVITDSGGTNYADSVKGRFTISRDNAKNTVYLQMNSLKPEDTAVYYCNTDAGDYYGENYWGQGTQVTVSS”, the “polyreactivity (PSR sort gate)” value was “low polyreactivity”.

Turning to “QVQLVESGGGLVQAGGSLRLSCAASGTFKWYAMGWYRQAPGKERELVAVISSSGGTTYYADSVKGRFTISRDTAKITVYLQMNSLKPEDTAFYYCNAAKLFRYDYWGQGTQVTVSS”, the “polyreactivity (PSR sort gate)” value is given as “high polyreactivity”.

As for “QVQLVESGGGLVQAGGSLRLSCAASGTFTSNAMGWYRQAPGKERELVAVITGGGRTNYADSVKGRFTISRDNAKNTVYLQMNSLKPEDTAVYYCAAEVYLPYYERYDYWGQGTQVTVSS”, the “polyreactivity (PSR sort gate)” value is reported as “low polyreactivity”.

Regarding “QVQLVESGGGLVQAGGSLRLSCAASGTFVTYMGWSRQAPGKERELVAAIRNGGSTNNADTVKGRFTISRDNAKNTVYLQMNSLIPEDTAVYYCAPRFTYSRGYRGGSRTKYDYWGQGTQVTVSS”, the “polyreactivity (PSR sort gate)” value was “low polyreactivity”.

With “QVQLVESGGGLVQAGGSLRLSCAASGTFVYYAMGWYRQAPGKERELVAVISLNGGITYYADSVKGRFTISRDNAKNTVYLQMNSLKPEDTAVYYCNAQFYNSGWSFKYYYWGQGTQVTVSS”, the “polyreactivity (PSR sort gate)” value is listed as “low polyreactivity”.

Consider “QVQLVESGGGLVQAGGSLRLSCAASGTFYKYAMGWYRQAPGKERELVAAISWRGGRTYADSVKGRFTISRDNAKNTVYLQMNSLKPEDTAVYYCNKRFYPEHYYWGQGTQVTVSS”, for which the “polyreactivity (PSR sort gate)” value was “high polyreactivity”.

In the case of “QVQLVESGGGLVQAGGSLRLSCAASGTFYPNAMGWYRQAPGKERELVAAISEDGGGTYYADSVKGRFTISRDNAKNTVYLQMNSLKPEDTAVYYCAAEYYDYWYTYDYWGQGTQVTVSS”, the “polyreactivity (PSR sort gate)” value is “high polyreactivity”.

With “QVQLVESGGGLVQAGGSLRLSCAASGTIFDAYAMGWYRQAPGKERELVAAISLDDGSTYYADSVKGRFTISRDNAKNTVYLQMNSLKPEDTAVYYCAADYYVRSQHLYATSGNYWGQGTQVTVSS”, the “polyreactivity (PSR sort gate)” value is recorded as “high polyreactivity”.

“QVQLVESGGGLVQAGGSLRLSCAASGTIFPGYTIGWYRQAPGKEREFVAAISRRGGSTYYADSVKGRFTISRDNAKNTVYLQMNSLKPEDTAVYYCPKVPDYRFEYWGQGTLVTVSS”: the “polyreactivity (PSR sort gate)” value is listed as “high polyreactivity”.

For “QVQLVESGGGLVQAGGSLRLSCAASGTIFRLYTMGWYSQAPGKERELVAAITGSGDSTYYADSVKGRFTISRDNAKNTVYLQMNSLKPEDTAFYYFAAKLSRVKYGYWGQGTQVTVSS”, the “polyreactivity (PSR sort gate)” value was “high polyreactivity”.

Turning to “QVQLVESGGGLVQAGGSLRLSCAASGTIFRVYAMGRYRQAPGTERELVAAISSSGGSTYYADSVKGRFTISRDNAKTTVYLQMNSLKPEDTAVYYCAAEYDGPYTWVDYYYHYGYWGQGTQVTVSS”, the “polyreactivity (PSR sort gate)” value is “low polyreactivity”.

As to “QVQLVESGGGLVQAGGSLRLSCAASGTIFTTYAIGWYRQEPGKERELVSAISGRGSDTYYADSVKGRFTISRDNAMNTVYLQMNSLKPEDTAVYYCNARRSRAYHGRSFEYWGQGTQVTLSS”, the “polyreactivity (PSR sort gate)” value is “low polyreactivity”.

As to “QVQLVESGGGLVQAGGSLRLSCAASGTIFVPYAMGWYRQAPGKERELVAVITSGGSTYYADSVKGRFTISRDNAKNTVYLQMNSLNPEDTAVYYCIADLYYVWSTLSQFDYWGQGTHVTVSS”, the “polyreactivity (PSR sort gate)” value is “low polyreactivity”.

For the sequence “QVQLVESGGGLVQAGGSLRLSCAASGTIFYDNDMGWYRQAPGKERELVAAISWSASDTYYADSVKGRFTISRDNAKNTVYLHINILKPEDTAVYYCNAEVYVWYFVYSALDYWGLGTQVTVSS”, the “polyreactivity (PSR sort gate)” value was “low polyreactivity”.

For “QVQLVESGGGLVQAGGSLRLSCAASGTIFYVYAMGWYRQAPGKERELVDAINTSGGSTFYADSVKGRFTISRDNAKNTVYLHMKSLKPEDTAVYYCAAERYRYRSTDTMGYWGQGSQVTVSS”, the “polyreactivity (PSR sort gate)” value is listed as “low polyreactivity”.

As for “QVQLVESGGGLVQAGGSLRLSCAASGTIIVWNAMGRYRQARGKERELVASITSGASTNYADSVKGRFTISRDNAKNTVYLQMNSLKPEDTAVYYCNAGPRRTISRSRLRSAPKYDYWGQGTQVTVSS”, the “polyreactivity (PSR sort gate)” value is “low polyreactivity”.

On to “QVQLVESGGGLVQAGGSLRLSCAASGTIIYLNAMAWYRQAPGKERELVAAITSGGSTYYADSVKGRFTISRDNAKNTVYVQMNSLKPEDTAVYYCAAFVWSGWGHWFYFWGQGTQVTVSS”, for which the “polyreactivity (PSR sort gate)” value was “high polyreactivity”.

With “QVQLVESGGGLVQAGGSLRLSCAASGTISAYAMGWYRQAPGKERELVAAITRTGGSTYYADSVKGRFTISRDNAKNTVYLQMNSLKPEDTAVYYCATEFRYREFYYWGQGTQVTVSS”, the “polyreactivity (PSR sort gate)” value is recorded as “high polyreactivity”.

As to “QVQLVESGGGLVQAGGSLRLSCAASGTIVGYAMGWYRQAPGKERELVASNSWRVGSTYYADSVKGRFTISRDNAKNTVYLQMISLKPEDTAVYYCNAASYVFLYYPGGIYRDDYWGQGTQVTVSS”, the “polyreactivity (PSR sort gate)” value is “low polyreactivity”.

Regarding “QVQLVESGGGLVQAGGSLRLSCAASGTLSSYAMGWYRQAAGKERELVAALSLSGGSTYADSVKGRFTISRDNAYNTVYLQMNSLKPEDTAVYYCAKDWDVDITWSFSIYNYWGQGTQVTVSS”, the “polyreactivity (PSR sort gate)” value is “low polyreactivity”.

On to “QVQLVESGGGLVQAGGSLRLSCAASGTLSSYAMGWYRQAPGKERELVAAISLSGGSTYYADSVKGRFTISRDNAKNTVYLQMNSLKPEDTAVYYCAKRPKRTYYPHIGYDYWGQGTQVTVSS”, for which the “polyreactivity (PSR sort gate)” value is “low polyreactivity”.

With “QVQLVESGGGLVQAGGSLRLSCAASGTTFAKNAMGWYRQAPGKERELVAAISWSGGSTYYADSVKGRFTISRDNAKNSVYLQMNSLKPVDTAVYYCAADSPRYGGYGYWGQGTQVTVSS”, the “polyreactivity (PSR sort gate)” value is given as “low polyreactivity”.

On to “QVQLVESGGGLVQAGGSLRLSCAASGTTISAYDMGRYRQAPGKEREMVAAITWIGGNTYYADSVKGRFTISRDNAKNTVYLQMNSLKPEDTAVYYCAAEEVPYDRDMDYWGQGTKVTVSS”, for which the “polyreactivity (PSR sort gate)” value is given as “low polyreactivity”.

Take “QVQLVESGGGLVQAGGSLRLSCAASGTTIYTNAKGWYRQAPGKEREFVAAISWSGSSTYADSVKGRFTISRDNAKNTFYLQMNSLKPEDTAVYYCAADWFKQRTDYYWGQGTQVTVSS”: the “polyreactivity (PSR sort gate)” value is “low polyreactivity”.

Turning to “QVQLVESGGGLVQAGGSLRLSCAASGTYRLYAMGWYRQAPGKEREFVAAITYGGGGTYYADSVKGRFTISRDNAKNTVYLQMNSLKPEDTAVYYCAADLYLTDTDVEYYYWGQGTKVTVSS”, the “polyreactivity (PSR sort gate)” value is “low polyreactivity”.

On to “QVQLVESGGGLVQAGGSLRLSCAASGTYYLYAMGWYRQAPRKERELVAAISGSGSTNYADSVKGRFTISRDNAKNTVYLQMNSLKPEDTAVYYCAAYQRYVSVTGARYEYDYWGQGTQVTVSS”, for which the “polyreactivity (PSR sort gate)” value is on record as “low polyreactivity”.

Consider “QVQLVESGGGLVQAGGSLRLSCAASGVIFFSYAMGWYRQAPGKERELVASISRSGGTTYYADSVKGRFTISRDNGKNTVYLQMNSLKPEDTAVYYCAARTYSYYSRDYCGQGTQVTVSS”, for which the “polyreactivity (PSR sort gate)” value is “high polyreactivity”.

As to “QVQLVESGGGLVQAGGSLRLSCAASGVIFTFYAMGWYRQAPGKEREFVASIDWGDGSTYYADSVKGRFTISRDNAKNTVYLQMNSLKPEDTAVYYCAHDSDGYVCDTEYDYWGQGTQVTVSS”, the “polyreactivity (PSR sort gate)” value is listed as “low polyreactivity”.

As to “QVQLVESGGGLVQAGGSLRLSCAASGVYAMGWYRQAPGQEREWVAAITSVGSTNYADSVKGRFTISRDNAKNTVYLQMNSLKPEDTAVFYCNTDRDTDELDYWGQGTQVTVSS”, the “polyreactivity (PSR sort gate)” value is on record as “low polyreactivity”.

With “QVQLVESGGGLVQAGGSLRLSCAASGWYRQAPGKERELVAAITYSGGSTYYADSVKGRFTISRDNAKNTVYLQMNSLKPEDTAVYYCAKQGLWIFVVVEMDYWGQGTQVTVSS”, the “polyreactivity (PSR sort gate)” value was “low polyreactivity”.

For “QVQLVESGGGLVQAGGSLRLSCAASGYIFADNDMGWYRQAPGKERELVASIDWSGGSTYYADSVKGRFTISRDNAKNTVYLQMNSLKPEDTAVYYCNKGAFGGVSSYIYWAFYSGYDYWGLGTQVTVSS”, the “polyreactivity (PSR sort gate)” value was “low polyreactivity”.

For “QVQLVESGGGLVQAGGSLRLSCAASGYIFAGNAMGWYRQAPGKERELVAAINSDGRTYYADSVRGRFTISRDNAKNSVYLQMNSLKPEDTAVYYCAVVRFYLGDYLVEFDYWGQGTQVTVSS”, the “polyreactivity (PSR sort gate)” value is “low polyreactivity”.

On to “QVQLVESGGGLVQAGGSLRLSCAASGYIFAPYAMGWYRQAPGKERELVAAISSGGSTYYADSVKGRFTISRDNAKNTVYLQKNSQKPEDPAVYYCAKRYIYSYYWGQGTQVTVSS”, for which the “polyreactivity (PSR sort gate)” value is given as “high polyreactivity”.

Take “QVQLVESGGGLVQAGGSLRLSCAASGYIFCGYAMGWYRQAPGKERELVAAINRGGSTYYADSVKGRFTISRDNAKNTVYLQMNSLKPEDTAVYYCAARLLYYNSIKRYYWGQGTQVTVSS”: the “polyreactivity (PSR sort gate)” value is on record as “high polyreactivity”.

As to “QVQLVESGGGLVQAGGSLRLSCAASGYIFDDNAMGWYRQAPGKERELVATNYADSVKGRFTISRDNAKNTVYLQMNSLKPEDTAVYYCAKDVWQTYTDLDHWGQGTQVTVSS”, the “polyreactivity (PSR sort gate)” value was “low polyreactivity”.

Regarding “QVQLVESGGGLVQAGGSLRLSCAASGYIFDNNAMGWYRQAPGKERELVAAINWSGGSTYYADSVKGRFTISRDNAKNTVYLQMNSLKPEDTAVYYCNKLIYGIYYPERYAYDYWGQGTQVTVSS”, the “polyreactivity (PSR sort gate)” value is “low polyreactivity”.

As for “QVQLVESGGGLVQAGGSLRLSCAASGYIFDVYAMGWYRQAPGKERELVATISSGTGITKYADSVKGRFTISRDNAKNTVYLQMNSLKPEDTAVYYCAADYASLSWLGFYYWGQGTQVTVSS”, the “polyreactivity (PSR sort gate)” value is “low polyreactivity”.

Consider “QVQLVESGGGLVQAGGSLRLSCAASGYIFEYYAMGWYRQAPGKERELVAAISVGGGSTYYADSVKGRFTISRDNAKNTVYLQMNSLKPEDTAVYYCAAVQLYQKHQITYVAHEYWGQGTQVTVSS”, for which the “polyreactivity (PSR sort gate)” value was “low polyreactivity”.

With “QVQLVESGGGLVQAGGSLRLSCAASGYIFFANAMGWYRPAPGKERELVAAISSDGRTYYADSVKGRFTISRDNAKNTVYLQMNRLKPEDTAVYYCAAYFSGLTYGYYVAGYDYWGQGTQVTVSS”, the “polyreactivity (PSR sort gate)” value was “low polyreactivity”.

As for “QVQLVESGGGLVQAGGSLRLSCAASGYIFFGNAMGWYRQAPGKERELVAAIRRRGTSTYYADSVKGRFTISRDNAKNTVYLQMNSLKPEDTAVYYCAADVVRSNFYGTFLYDYDYCGQGTQVTVSS”, the “polyreactivity (PSR sort gate)” value is “low polyreactivity”.
